Test results from patent US20100196361A1, “Method of inhibition of vascular development using an antibody” (DYAX CORP., priority 2003, published 2010).

T1: human Tie1 Fc (Homo sapiens, UniProt P35590)
T1 construct: selected against the Tie1 extracellular domain fused to human Fc or to a histidine purification tag
T1 sequence (P35590 22-759 limits assumed): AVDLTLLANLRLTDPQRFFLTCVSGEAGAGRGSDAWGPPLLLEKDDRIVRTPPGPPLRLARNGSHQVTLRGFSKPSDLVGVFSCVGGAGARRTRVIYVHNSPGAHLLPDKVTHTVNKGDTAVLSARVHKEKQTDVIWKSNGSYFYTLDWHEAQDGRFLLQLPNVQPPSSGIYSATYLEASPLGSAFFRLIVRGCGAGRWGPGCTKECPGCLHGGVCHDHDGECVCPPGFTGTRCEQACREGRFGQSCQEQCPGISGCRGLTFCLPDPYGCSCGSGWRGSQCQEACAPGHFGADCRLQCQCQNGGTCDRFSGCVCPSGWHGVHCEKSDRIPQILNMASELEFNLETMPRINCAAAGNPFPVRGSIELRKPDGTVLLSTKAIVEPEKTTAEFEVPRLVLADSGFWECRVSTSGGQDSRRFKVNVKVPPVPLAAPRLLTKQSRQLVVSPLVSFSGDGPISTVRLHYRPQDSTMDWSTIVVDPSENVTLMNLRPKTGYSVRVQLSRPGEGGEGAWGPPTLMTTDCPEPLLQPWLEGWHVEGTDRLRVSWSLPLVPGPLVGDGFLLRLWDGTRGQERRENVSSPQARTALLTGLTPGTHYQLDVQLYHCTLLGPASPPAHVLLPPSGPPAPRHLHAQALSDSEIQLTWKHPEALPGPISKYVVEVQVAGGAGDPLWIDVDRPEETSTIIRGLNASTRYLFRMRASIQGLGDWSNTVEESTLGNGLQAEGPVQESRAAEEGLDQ

B1: E3: human anti-Tie1 antibody from phage Fab library, reformatted as IgG; HC variable SEQ ID NO:114, LC variable SEQ ID NO:116 (antibody, V domains shown)
VH: EVQLLESGGGLVQPGGSLRLSCAASGFTFSMYGMVWVRQAPGKGLEWVSVISPSGGNTGYADSVKGRFTISRDNSKNTLYLQVNSLRAEDTAVYYCARAPRGYSYGYYYWGQGTLVTVSSASTKGPSVFPLAPSSKSTSGG
VL: DIQMTQSPLSLSASVGDRVTITCRASQGIGHYLAWYQQKPGKVPKLLIYTASTLQSGVPSRFSGSGSGTDFTLTINSLQPEDVATYYCQQFNSYPHTFGQGTRLDIK
modifications: IgG constant regions; Synthetically generated peptide
B2: germlined E3 Fab: soluble Fab of E3 with LC framework regions germlined to DPK4; LC variable SEQ ID NO:159 (antibody, V domains shown)
VH: EVQLLESGGGLVQPGGSLRLSCAASGFTFSMYGMVWVRQAPGKGLEWVSVISPSGGNTGYADSVKGRFTISRDNSKNTLYLQVNSLRAEDTAVYYCARAPRGYSYGYYYWGQGTLVTVSSASTKGPSVFPLAPSSKSTSGG
VL: DIQMTQSPSSLSASVGDRVTITCRASQGIGHYLAWYQQKPGKVPKLLIYTASTLQSGVPSRFSGSGSGTDFTLTISSLQPEDVATYYCQQFNSYPHTFGQGTRLEIK
B3: DX-2210: E3 antibody in which the light chain has been germlined (antibody, V domains shown)
VH: EVQLLESGGGLVQPGGSLRLSCAASGFTFSMYGMVWVRQAPGKGLEWVSVISPSGGNTGYADSVKGRFTISRDNSKNTLYLQVNSLRAEDTAVYYCARAPRGYSYGYYYWGQGTLVTVSSASTKGPSVFPLAPSSKSTSGG
VL: DIQMTQSPSSLSASVGDRVTITCRASQGIGHYLAWYQQKPGKVPKLLIYTASTLQSGVPSRFSGSGSGTDFTLTISSLQPEDVATYYCQQFNSYPHTFGQGTRLEIK
B4: parental E3 Fab: soluble Fab fragment of the parental E3 anti-Tie1 antibody (antibody, V domains shown)
VH: EVQLLESGGGLVQPGGSLRLSCAASGFTFSMYGMVWVRQAPGKGLEWVSVISPSGGNTGYADSVKGRFTISRDNSKNTLYLQVNSLRAEDTAVYYCARAPRGYSYGYYYWGQGTLVTVSSASTKGPSVFPLAPSSKSTSGG
VL: DIQMTQSPLSLSASVGDRVTITCRASQGIGHYLAWYQQKPGKVPKLLIYTASTLQSGVPSRFSGSGSGTDFTLTINSLQPEDVATYYCQQFNSYPHTFGQGTRLDIK

Columns and labels:
[1] = test system: bFGF-induced angiogenesis; assay: […] plug assay in vivo; set-up: species or system mouse
Protocol: The germlined variant of the E3 IgG antibody was evaluated in an in vivo assay for angiogenesis induced by bFGF in […]™ plugs. Growth factor reduced […]™ (BD Biosciences, catalog #354230) was supplemented with 80 ng/ml of bFGF (R&D Systems, catalog #234-FSE). The A2-SV or an IgG4 E3 antibody (10 μg/ml) or PBS was injected subcutaneously into the abdominal area of NMRI nu/nu mice (150 μl of Matrigel/plug).
In the first assay, two mice were injected with […]™ supplemented with bFGF and soluble VEGFR-1 (10 μg/ml) as a positive control for an angiogenic inhibitor. At day 7 post-implantation mice were anesthetized and perfused through heart with 4% paraformaldehyde (PFA) in phosphate buffered saline (PBS). […]™ plugs and a piece of liver were removed and embedded in paraffin. Sections were cut and stained with hematoxylin and eosin (H&E).
In a second assay, mice were treated as described above, and then anesthetized eight days post-implantation and injected with fluorescein-conjugated tomato (lycopersicon esculentum) lectin (100 μg in 200 μl of PBS; Vector, catalog #FL-1171) into the tail vein. After five min circulation the animals were perfused through the heart with 10 ml of PBS followed by 10 ml of 4% PFA in PBS. […]™ plugs and pieces of kidney and liver were removed and frozen in OCT (Tissue-Tek). Nuclei were visualized on sections by using […]® mounting medium containing DAPI (Vector) and analyzed under fluorescence microscopy.
To assess further the potential anti-angiogenic activity of the E3 antibody, a third assay examining the effect of DX-2210 (E3 antibody with germlined light chain) on bFGF-induced endothelial cell tube formation in […]™ plugs was performed. […] In order to quantitate the amount of blood vessels in the […]™ plugs, sections were cut and either stained for endothelial cell content using an anti-CD-31 antibody or analyzed under fluorescence microscopy to assess the amount of functional blood vessels (tomato lectin staining) (data not shown). In addition, the amount of blood vessels per unit area was quantitated.

human Tie1 Fc = biological target: T1, human Tie1 Fc; assay: BIAcore, Fab over biotinylated Tie1-Fc on streptavidin chip; format: binding; conditions: Fab analyte; for kon: 830 RU
Protocol: Recombinant purified human Tie1-Fc antigen (Stock 2.45 mg/ml) was biotinylated using the EZ-link Sulfo-NHS-SS-Biotin (Pierce, Cat. 21331). The reaction was performed for 2 hours on ice in 50 mM sodium carbonate buffer, pH 9.6, in the presence of a 5-fold molar excess of biotinylating agent and was stopped by the addition of Tris-HCl, pH 7.5 (50 mM final concentration) followed by a 1-hour incubation on ice. Samples were then dialyzed against PBS. The antigen was then diluted 1/100 fold in HBS and was then captured onto a streptavidin chip. This was coated to a density of 830RU (resonance units). All analysis was performed in HBS buffer. The parental Fab E3 and germlined E3 Fab were prepared as described above. A stock solution of 0.587 mg/ml (11740 nM) was diluted 1/587 in HBS+BSA to obtain a stock of 20 nM and the germlined Fab E3 0.025 mg/ml (500 nM) was diluted 1/25 in HBS+BSA to obtain a stock of 20 nM. Serial dilutions were made of each Fab preparation to obtain 10 nM, 5 nM, 2.5 nM, and 1.25 nM solutions. For the association phase samples were injected at 30 μl/min for 4 minutes using kinject program. This was followed by a 10 minutes dissociation phase, any remaining sample was stripped from the Tie1 Fc surface at a flow of 50 μl/min with a single injection of 5 mM NaOH+1M NaCl for 18 seconds. All samples were run and analyzed in duplicate.
Sensorgrams were analyzed using the simultaneous ka/kd fitting program with 1:1 model in the BIAEVALUATION™ software 3.1.

Molecule | fluorescein-lectin staining of MATRIGEL plugs ([1]; bFGF, antibody in plug, eight days post-implantation) | koff (human Tie1 Fc) | kon (human Tie1 Fc) | inhibition of bFGF-induced angiogenesis (blood vessels per unit area) ([1]; MATRIGEL with HUVECs and bFGF, Balb/c nu/nu mice, day 8) | H&E staining of MATRIGEL plugs ([1]; bFGF 80 ng/ml, antibody 10 μg/ml in plug, NMRI nu/nu mice, day 7)
B1 | no staining could be detected |  |  |  | 
B2 |  | 0.00102 s⁻¹ | 300000 M⁻¹ s⁻¹ |  | 
B3 |  |  |  | 70% | neither modification of the matrix nor organization of the cells observed
B4 |  | 0.00061 s⁻¹ | 300000 M⁻¹ s⁻¹ |  | 
